± gives the uncertainty stated by the source.

This data set can be described thus: amyloid nucleation score (Sup35N fusion, yeast selection) (log enrichment); library NNK3; higher = more nucleation; inactive = no reads after selection. Put shortly: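 Peptides of 20 random codons fused to Sup35N were expressed in psi-negative yeast, induced 24 hours with 100 μM copper sulfate, then grown 7 days at 30°C on medium lacking adenine and uracil. Input and output plasmid inserts were Illumina-sequenced. Nucleation score is the DiMSum log enrichment of output over input reads, centred on the mode score of non-aggregating sequences, excluding sequences with under 100 input reads. Random libraries had three technical output replicates.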
As to FSLHNRGFMIQHKRVLEDGA, the amyloid nucleation score result is “inactive”. Turning to LFSSFTSPLRMRWLDRSYHF, the amyloid nucleation score result was “inactive”. To PLRRSMMRIPHATF belongs “inactive”; to LSCDGNRGTVFVIRIFSGDV, 2.62 ± 0.078. With RVTFWPFVVSAFRVMYGICK the entry was “inactive”; with NVIMCLRCQY, 2.03 ± 0.1; with IQASWFNWKWLL, “inactive”. VNEERGNYVWSCIMRYHLWD: the amyloid nucleation score result is “inactive”. To ESDITICS belongs “inactive”; to VVSRVMTGSHHVRQFRM, “inactive”; to YRIVLIFCEISNAMGVVQTS, “inactive”. With DEFVKYQP the entry was “inactive”; with LSGADTYRSTTRSYGGNDVV, -0.641 ± 1.1; with ARICIAACIRAICDGFSGRR, “inactive”. To SMLISRSEHLRLDTFGDSRY belongs 0.634 ± 0.13.

QLINWFRSDDLSLTAVKRKW showed an amyloid nucleation score of 0.596 ± 0.19. To FTLDYLNSGSI belongs “inactive”; to NVHVISVFGFYEVTLFNDEV, “inactive”; to RFNGDQMYFNLSFKISELFP, 1.09 ± 0.079.

Regarding GCAKVKLI, the amyloid nucleation score is -0.292 ± 0.75. With TYVRIGVCGVLWFCTFFTQC, the amyloid nucleation score entry was “inactive”. With RCSRWNWCVVAG the entry was “inactive”. CQLAV: the amyloid nucleation score result is “inactive”. For the substance HYFGKT, the amyloid nucleation score result was “inactive”. As for VISISRFDGWQRAHVKVRVS, the amyloid nucleation score entry is “inactive”. Turning to FMFASQLMRFFHSWTVSRSS, the amyloid nucleation score entry is “inactive”. With FYKLTLRSVRFLSFTYRIGA the entry was “inactive”; with SSFSFYYDFIHS, -0.433 ± 0.88. With LFSHESLVTTGLVAVFSLAK, the amyloid nucleation score result was “inactive”.

As to TCSYANHMSKVFEVVMV, the amyloid nucleation score entry is “inactive”.

PLEGTALRHMVSMYYLSCWT: the amyloid nucleation score result was “inactive”.

As to MKNRYLNRCTLVANAFGLKE, the amyloid nucleation score result is “inactive”.

With TSLWRLL, the amyloid nucleation score entry was “inactive”. With LFNNFYLVSFGWLDGG the figure was 2.31 ± 0.068.

With LWRWKYRAILKRYEKERVGR, the amyloid nucleation score entry was “inactive”.

For PAMDII, the amyloid nucleation score result was “inactive”. With IANCRIS the figure was 1.34 ± 0.094; with SESTFYMGRLFKEGPRKHVT, “inactive”; with GTRIGEIRLASFGSVRGFNV, “inactive”. To RRDCCGE belongs 0.17 ± 0.75; to GFINKDVF, “inactive”. To ERFSFVLVNGVRYFRSNLRW belongs “inactive”; to IPNDYAVAYAEGQLLVCELK, “inactive”.

Regarding ACCQTDRFRFEVALVGFVVG, the amyloid nucleation score result was “inactive”.

Regarding LDMKPRQARTFFLNHGVLPA, the amyloid nucleation score was found to be 0.313 ± 0.78. In the case of LSDYIGAPFSSKSRDW, the amyloid nucleation score result was “inactive”. As for CEKDRMNLWLTRDG, the amyloid nucleation score entry is “inactive”.

As for IDLKY, the amyloid nucleation score entry is “inactive”. With THLVDYKLVL the entry was “inactive”; with GCECGISHLVLGAKVVPSMI, “inactive”; with NCQSTTTQGILCISLSYMEI, “inactive”. With RSSSCLKTYLYLCGGWTSTF the figure was 0.003 ± 0.26. In the case of LGHYAKPLSSVQQNRTNMGA, the amyloid nucleation score entry was “inactive”. To ICFGDKVRIKFFVPSIFSWY belongs “inactive”. With ISIGYEQFLDSCNLLSIYLT the entry was “inactive”; with VSWNWATGLRFRPLSCYGLV, “inactive”; with HFIKGGLHCVS, “inactive”. In the case of VCLLNWFWIYDQYVRQLTVV, the amyloid nucleation score result is “inactive”. Take RQTTYHGGKWLCSSVSGMYN: the amyloid nucleation score entry is “inactive”.

With FGTVAWPITFIIRMAVGSSC, the amyloid nucleation score is 0.936 ± 0.15. For the substance MCTNMSRNQFITDIVLCDRS, the amyloid nucleation score result was “inactive”. In turn, RSFLIRFILDLVYIRRTRNV yielded an amyloid nucleation score of -0.273 ± 1.1. To HVGAIMLLLLLTSERLMTLD belongs “inactive”; to VHFSVMVGKKDDPSLF, “inactive”; to YSMIKFSISAD, “inactive”.

SHVWPLLMYHGGIVWSKS: the amyloid nucleation score entry is “inactive”.

On to YFDSWTSMSAYYMGSFHW, for which the amyloid nucleation score entry was “inactive”. To SVYLT belongs “inactive”; to WLFMIARTYR, “inactive”; to MLGVMCLYQVVFIDHSYSYR, “inactive”. To YHLDFMMGINSFRRVKAEPG belongs “inactive”; to RVLNAYSLEYKCISSMPWYL, 1.49 ± 0.14; to MVLGELCVPGIFALCRFECN, “inactive”.

Consider SVIARVVRPMLRCKVSSMSM, for which the amyloid nucleation score entry was “inactive”. To FSLHQSNTLRPWDLIPATW belongs “inactive”. To CIGIYFLIRGTYILIVFSL belongs -0.607 ± 1; to ECCQSSSVITNFSSFVKGGA, “inactive”. For the substance MALHRFS, the amyloid nucleation score entry was “inactive”.

NQALNILFYLNSSKSCVYPY registered an amyloid nucleation score of 2.47 ± 0.063. Take FLGDYRILSLLFYI: the amyloid nucleation score turned out to be 2.49 ± 0.053. VMCFYRLLNVIQWTTANVFG: the amyloid nucleation score entry was “inactive”.

Consider CQCMSFIRTNSYKDFT, for which the amyloid nucleation score result is “inactive”. With LFLVA the entry was “inactive”; with SEIRGNRNMTTEAPT, “inactive”; with TGVVTMF, “inactive”. FYSCGNDAASMLFRLTSGGI: the amyloid nucleation score entry was “inactive”.

For PELRRLTMESYIRNFWSVLS, the amyloid nucleation score entry was “inactive”. With FYLGEYETLFVKDIRGDSVP the figure was -0.97 ± 1.1; with DLAWPRMPTIQARVEQYCLI, “inactive”. With STLLRDEML the entry was “inactive”. With GCASRLFVGWRGSCRMCGTY the entry was “inactive”; with RFESHSL, “inactive”. In turn, SEPRWSISDYWTKSVDMVLW gave an amyloid nucleation score of 1.07 ± 0.2. To KVVNGVRCKKSQGLI belongs “inactive”; to LNNSTSCEVGKNVCISFKWA, 2.22 ± 0.089. To GNSAYK belongs “inactive”; to FIIWAMDWVFASRL, “inactive”; to CLNGPFVCLKYYVCFIAMMF, “inactive”.

In turn, CDSRSCFKVYASLAARSDQR returned an amyloid nucleation score of 2.12 ± 0.074. With YLESGLTS the entry was “inactive”; with RMRSGSA, “inactive”.

RACHFQVIMCMICALCGFAS registered an amyloid nucleation score of 1.91 ± 0.079.

As for STQCFDELMYA, the amyloid nucleation score entry was “inactive”. For TPKFLSMLIRTHSSPVRTHL, the amyloid nucleation score entry was “inactive”. Take MALLLDILMNNNFISIKGFI: the amyloid nucleation score entry was “inactive”. To EILISNCEVDRRLYRGGN belongs -0.618 ± 0.98; to YRMICPAIV, “inactive”.

With ETISFYLCLLYDVKLVNALM, the amyloid nucleation score is -0.54 ± 0.68. For TCLWGYALFICMNSRWGMRW, the amyloid nucleation score result was “inactive”. On to APRFRFQTVHRSFVRSRKLR, for which the amyloid nucleation score result is “inactive”. SLRSCVYPMDDGIMQCWSSR: the amyloid nucleation score entry was “inactive”. For the substance EMVITWCLRMLSQAMLGGYS, the amyloid nucleation score entry was “inactive”. To ITMLMLATVKYSFYADLRFL belongs “inactive”; to SAEVF, “inactive”; to AVTYENRSNLIVKVLVI, -0.363 ± 0.27.

On to TLVRTDPRGTVSPPTFPCEW, for which the amyloid nucleation score result is “inactive”. LQCAHLFPV showed an amyloid nucleation score of 0.931 ± 0.099. With THRDYLMVRYCGSCHVEMVS the entry was “inactive”; with LSFWVSYLGIVFLQNICEEW, “inactive”. To IVSNTTPTQPTSVLVNYSVR belongs “inactive”.

Regarding CCRLHRGISVNPILQSYGIM, the amyloid nucleation score result was “inactive”. To WDIWCRS belongs “inactive”; to SDQSCGDIMMELFWQM, “inactive”; to GFPKWDESSMSTFDCSIRSR, “inactive”.

MTRVNFYFLFFELLLMAFGV: the amyloid nucleation score entry is “inactive”. With IKSTTSKVPANMDSWLGTKM the entry was “inactive”; with NCELGYARPLGDAMLNRAWF, “inactive”. With YAFLTYFSKVIDSVF the figure was 1.33 ± 0.076. QSLSNKVMLLSGRVNQVDVA: the amyloid nucleation score was -0.935 ± 1.5. To GSHICGALSSRDLFSGVLRI belongs “inactive”; to IDHKCCNNTVS, “inactive”. With FFIDQLKEFSHY, the amyloid nucleation score result is “inactive”.

For the origin of these results see the supplement of paper PMC12042874.
